Values of other authors in patent US10966977B2, “Combination of anti-CD20 antibody, P13 kinase-delta selective inhibitor, and BTK inhibitor to treat b-cell proliferative disorders” (TG Therapeutics, Inc., priority 2016, dated 2021).
“Also recorded” adds a separate entry of the source. Where a name gives a salt, the structure may show the parent alone.

How the values were obtained:
CD20 = target: T1, CD20 (Homo sapiens, UniProt P11836)
T1 sequence (P11836 1-297): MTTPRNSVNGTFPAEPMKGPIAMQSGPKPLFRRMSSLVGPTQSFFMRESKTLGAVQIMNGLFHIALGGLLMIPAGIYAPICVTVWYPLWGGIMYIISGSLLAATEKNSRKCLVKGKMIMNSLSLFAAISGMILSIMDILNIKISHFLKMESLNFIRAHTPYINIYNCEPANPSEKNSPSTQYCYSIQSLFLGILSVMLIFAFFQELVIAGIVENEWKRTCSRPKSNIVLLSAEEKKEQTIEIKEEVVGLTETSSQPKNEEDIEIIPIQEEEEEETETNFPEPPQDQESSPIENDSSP

[1] = test system: relapsed and refractory hematologic malignancies; details: single agent
[2] = single agent
CD20 antigen = target: T2, CD20 antigen (Homo sapiens, UniProt P11836)
T2 sequence (P11836 1-297): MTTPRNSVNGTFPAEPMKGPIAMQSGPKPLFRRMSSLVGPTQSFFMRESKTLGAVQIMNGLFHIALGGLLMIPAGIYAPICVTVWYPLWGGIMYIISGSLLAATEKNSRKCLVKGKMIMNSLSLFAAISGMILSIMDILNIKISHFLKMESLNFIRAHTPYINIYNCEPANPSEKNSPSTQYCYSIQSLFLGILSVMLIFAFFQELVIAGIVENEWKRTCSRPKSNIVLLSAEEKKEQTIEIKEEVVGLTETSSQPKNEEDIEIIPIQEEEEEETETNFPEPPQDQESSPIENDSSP

## ofatumumab: anti-CD20 IgG1κ human monoclonal antibody
CD20
  dissociation rate from CD20 compared to rituximab: slower rate

## CC(C)Oc1ccc(-c2nn([C@@H](C)c3oc4ccc(F)cc4c(=O)c3-c3cccc(F)c3)c3ncnc(N)c23)cc1F [TGR-1202, (S)-2-(1-(4-amino-3-(3-fluoro-4-isopropoxyphenyl)-1H-pyrazolo[3,4-d]pyrimidin-1-yl)ethyl)-6-fluoro-3-(3-fluorophenyl)-4H-chromen-4-one p-toluenesulfonic acid (PTSA) salt]
[1]
  hepatic toxicity: no reported hepatic toxicity
[1]; patients with relapsed or refractory hematologic malignancies
  tolerability: well-tolerated

B1: Ublituximab: chimeric monoclonal antibody targeting a unique epitope on the CD20 antigen, glycoengineered for enhanced affinity for Fcγ RIIIa receptors (antibody, V domains shown)
VH: QAYLQQSGAELVRPGASVKMSCKASGYTFTSYNMHWVKQTPRQGLEWIGGIYPGNGDTSYNQKFKGKATLTVGKSSSTAYMQLSSLTSEDSAVYFCARYDYNYAMDYWGQGTSVTVSS
VL: QIVLSQSPAILSASPGEKVTMTCRASSSVSYMHWYQQKPGSSPKPWIYATSNLASGVPARFSGSGSGTSYSFTISRVEAEDAATYYCQQWTFNPPTFGGGTRLEIK
modifications: Ublituximab Variable heavy chain; Ublituximab Variable light chain
[2]
  responses in rituximab refractory patients: Responses with single agent ublituximab were observed in rituximab refractory patients; also recorded: Responses with single agent ublituximab have been observed in rituximab refractory patients
CD20 antigen
  ADCC activity compared with rituximab and ofatumab: greater antibody-dependent cellular cytotoxicity
